Test results published in PMC10448171, “Photocycle alteration and increased enzymatic activity in genetically modified photoactivated adenylate cyclase OaPAC” (The Journal of Biological Chemistry, 2023).

Substrate: Nc1ncnc2c1ncn2[C@@H]1O[C@H](COP(=O)(O)OP(=O)(O)OP(=O)(O)O)[C@@H](O)[C@H]1O
Experiment: EnzChek pyrophosphate coupled assay, A360, Michaelis-Menten fit
Assay type: biochemical, Oxynema acuminatum
Conditions: continuous illumination; 0-500 μM ATP; 1 μM enzyme
Description: EnzChek pyrophosphate coupled assay, A360, Michaelis-Menten fit on OaPAC

| Protein | Km | Vmax | kcat |
| --- | --- | --- | --- |
| OaPAC (Oxynema acuminatum PCC 6304; D67N) (protein, full-length, 366 residues, homodimer; N-terminal BLUF domain and C-terminal class III AC domain; pCold-I (Ni-NTA purified), E. coli BL21(DE3); Superdex 200) MKRLTYISKFSRPLSGDEIEAIGRISSQKNQQANVTGVLLCLDGIFFQILEGEAEKIDRIYERILANERHTDILCLKSEVEVQERMFPDWSMQTINLDENTDFLIRPIKVLLQTLTESHRILEKYTQPSIFKIISQGTNPLNIRPKAVEKIVFFSDIVSFSTFAEKLPVEEVVSVVNSYFSVCTAIITRQGGEVTKFIGDCVMAYFDGDCADQAIQASLDILMELEILRNSAPEGSPLRVLYSGIGLAKGKVIEGNIGSELKRDYTILGDAVNVAARLEALTRQLSQALVFSSEVKNSATKSWNFIWLTDSELKGKSESIDIYSIDNEMTRKSSGGLEIARNIGHYLERVGDRQPSQIFGVKSLPL | 41 ± 5 µM | 0.100 ± 0.002 mM/min | 0.8342 s⁻¹ |
| OaPAC (Oxynema acuminatum PCC 6304) (protein, full-length, 366 residues, homodimer; N-terminal BLUF domain and C-terminal class III AC domain; pCold-I (Ni-NTA purified), E. coli BL21(DE3); Superdex 200) MKRLTYISKFSRPLSGDEIEAIGRISSQKNQQANVTGVLLCLDGIFFQILEGEAEKIDRIYERILADERHTDILCLKSEVEVQERMFPDWSMQTINLDENTDFLIRPIKVLLQTLTESHRILEKYTQPSIFKIISQGTNPLNIRPKAVEKIVFFSDIVSFSTFAEKLPVEEVVSVVNSYFSVCTAIITRQGGEVTKFIGDCVMAYFDGDCADQAIQASLDILMELEILRNSAPEGSPLRVLYSGIGLAKGKVIEGNIGSELKRDYTILGDAVNVAARLEALTRQLSQALVFSSEVKNSATKSWNFIWLTDSELKGKSESIDIYSIDNEMTRKSSGGLEIARNIGHYLERVGDRQPSQIFGVKSLPL | 31 ± 1 µM | 0.064 ± 0.007 mM/min | 0.537 s⁻¹ |
